Measured values published in article PMC8828381.

Target: biotinylated SARS-CoV-2-S1 (SINO BIOLOGICAL #40591-V08H-B) (SARS-CoV-2)
Test: SPR

## integrin α5β1 extracellular domain with flag tag on α5 and His tag on β1 (from UniProt P08648;P05556) (complex)
  Kd: 31 nM
